One block for each binder: values may come before it. Where no end group is shown, it is not given here. [ ]: non-standard residue; d: D form. pGlu = O=C1CC[C@@H](C(=O)O)N1
What was measured:
[1] = molecular target: fibrin (fibrinogen dried on microtiter wells and converted with thrombin); test: competitive ELISA on fibrin-coated wells, competitor biotinylated Fn (2.3 nM)
[2] = molecular target: fibrin (fibrinogen dried on microtiter wells and converted with thrombin); test: competitive ELISA on fibrin-coated plates, competitor Fn (2.3 nM), 5,000 molar excess
[3] = molecular target: fibrin (fibrinogen dried on microtiter wells and converted with thrombin); test: competitive ELISA on fibrin-coated plates, competitor Fn (2.3 nM)
[4] = molecular target: fibrin (fibrinogen dried on microtiter wells and converted with thrombin); test: competitive ELISA against intact Fn on fibrin
[5] = molecular target: fibrin (fibrinogen dried on microtiter wells and converted with thrombin); test: competitive ELISA on fibrin-coated plates, competitor Fn

- % inhibition of biotinylated Fn binding [1]: 15%
- % inhibition of Fn binding [2]: < 20%
B1: recombinant ^1 F1.^2 F1 module pair of fibronectin (peptide)
chain: QAQQMVQPQSPVAVSQSKPGCYDNGKHYQINQQWERTYLGNALVCTCYGGSRGFNCESKPEAEETCFDKYTGNTYRVGDTYERPKDSMIWDCTCIGAGRGRISCTI
modifications: N-terminal pyroglutamate; the major species lacks the NH2-terminal Gln-Ala dipeptide and its new N-terminal Gln is also pyroglutamate

- % inhibition of Fn binding [3]: < 20%
B2: recombinant ^1 F1 module of fibronectin (peptide)
chain: [pGlu]AQQMVQPQSPVAVSQSKPGCYDNGKHYQINQQWERTYLGNALVCTCYGGSRGFNCESKPE
modifications: not fully specified (bridges); also: major species lacks N-terminal Gln-Ala, its new N-terminal Gln also pyroglutamate

- % inhibition (so in the source) [4]: 45%
- % inhibition of fibronectin binding [5]: 55%
Binder: CRDEKTQMIYQQHQSWLRPVLRSNRVEYCWCNSGRAQCH (not fully specified (bridges); cysteine pairing not given here) [t-PA type 1 module]
